Measured values: US20210139568A1 (AXON NEUROSCIENCE, published 2021)
Blank lines part the entries; values can stand above or below the binder they belong to. Where no end group is shown, it is not given here. [ ]: non-standard residue; d: D form. pT = C[C@@H](OP(=O)(O)O)[C@H](N)C(=O)O

B1: antibody DC807 (antibody, V domains shown)
VH: EVKLVESGGGLVKPGGSLKLSCAASGFTFSNYAMSWVRQNPEKRLEWVASISSGGTIYSPDSVKGRFTISRDNGRNILYLQMSSLRSEDTAMYSCARVNYDYGYAMDYWGQGTSVTVS
VL: DAVMTQTPLSLPVSLGDQASISCRSSQSLENSNGNTYLNWYLQKPGQSPQLLIYRVSNRFSGVLDRFSGSGSGTDFTLKISRVEAEDLGVYFCLQVTHVPWTFGGGTKLEIKR
notes: Mouse monoclonal antibody
B2: antibody DC149 (antibody, V domains shown)
VH: DVQLVESGGGLVQPGGSRKLSCAASGFTLSSFGMHWVRQAPEKGLEWVAYISSGSSTIYYADTVKGRFTISRDNPKNILFLQMTSLRSEDTAIYYCSRRLDYWGQGTSVTVS
VL: DIVITQDELSNPVTSGESVSISCRSSKSLLYKDGKTYLNWFLQRPGQSPQLLIYLMSTRASGVSDRFSGSGSGTDFTLEISRVKAEDVGVYYCQQFVEYPLTFGTGTKLELQR
notes: Mouse monoclonal antibody
B3: monoclonal antibody DC2E2 (antibody, V domains shown)
VH: EVQLQQSGAELVRPGALVKLSCKASGFNIKDYYMHWVRQRPDQGLEWIGWLDPENDHTIYDPRFQDRANLTADTSSNTAYLQLSSLTSEDTAVYYCSYYKYDDYWGQGTTLTVS
VL: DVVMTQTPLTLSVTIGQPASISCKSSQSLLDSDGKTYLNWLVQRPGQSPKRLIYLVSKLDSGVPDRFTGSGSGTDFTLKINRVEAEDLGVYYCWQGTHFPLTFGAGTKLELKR
notes: Used as hybridoma supernatant or Protein G purified; biotinylated as detector in the digital ELISA

Experiments:
[1] = biological target: T1, monoclonal antibody DC2E7; assay: competition ELISA, peptide pre-incubated with DC2E7
T1 construct: also called DC217 (apparent misprint)
T1 sequence (VL, as listed by the source): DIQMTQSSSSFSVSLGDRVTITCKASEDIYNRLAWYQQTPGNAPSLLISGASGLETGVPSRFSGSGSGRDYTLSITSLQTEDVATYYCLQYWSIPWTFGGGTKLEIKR
Experimental: In order to examine the effect of residues in the region of DC2E7 epitope on antibody binding, synthetic peptides of different lengths carrying different phospho-sites were analyzed in competitive ELISA. […] Each synthetized peptide contained phospho-site(s) located around the residue Thr217, except of unphosphorylated peptide tau 201-229 (used as negative control).
ELISA plates (Nunc Medisorp, Thermo Scientific, Denmark) were coated overnight at 37° C. with 50 μl/well of PHF-tau, diluted 200× in PBS. The coated plates were washed 5 times with PBS/Tween 20 (0.05% v/v), and blocked with PBS/Tween 20 for 1 h at 25° C. Each of the peptides was separately dissolved in PBS at a final concentration of 1 mM. Serial dilutions (2.5×) of peptides in PBS/Tween 20 were prepared in polypropylene microtiter plates with conical well bottom (Greiner) within the concentration range of 200 μM; 80 μM; 32 μM; 12.8 μM; 5.12 μM; 2.048 μM; 0.8192 μM; 0.32768 μM). The monoclonal antibody DC2E7 was diluted to a concentration of 0.6 μg/ml in PBS and 60 μl of this diluted antibody was added into each well to serial dilution of peptides resulting in 120 μl/well of mixture. The antibody/peptide mixtures were incubated for 1 hr at 25° C. on a rotating platform set to 230 rpm.

[2] = biological target: unphosphorylated tau protein (UniProt P10636-8 1-441, limits assumed); assay: ELISA
Chain of unphosphorylated tau protein (P10636 other isoform, or with tags, fused parts or gaps limits assumed): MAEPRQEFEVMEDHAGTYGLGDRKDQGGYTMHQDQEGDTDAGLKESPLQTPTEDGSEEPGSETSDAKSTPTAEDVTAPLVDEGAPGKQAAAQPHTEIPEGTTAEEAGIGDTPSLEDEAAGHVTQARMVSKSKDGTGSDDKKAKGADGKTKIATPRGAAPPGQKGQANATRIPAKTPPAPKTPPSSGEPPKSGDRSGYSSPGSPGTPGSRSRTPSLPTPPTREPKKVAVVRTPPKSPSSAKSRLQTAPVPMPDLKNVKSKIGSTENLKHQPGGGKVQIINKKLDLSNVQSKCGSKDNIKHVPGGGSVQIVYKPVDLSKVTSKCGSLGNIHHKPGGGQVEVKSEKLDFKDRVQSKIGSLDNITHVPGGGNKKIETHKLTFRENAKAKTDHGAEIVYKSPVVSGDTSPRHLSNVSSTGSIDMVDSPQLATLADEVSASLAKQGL

[3] = biological target: B3; assay: competition ELISA, peptide pre-incubated with DC2E2, plates coated with tau 1-242
Experimental: (§1) The plates were washed 4 times with PBS/Tween 20 (0.1% v/v), and blocked with PBS/Tween 20 for 2 h at 25° C. Peptides were separately dissolved in PBS at a final concentration of 5 mM. Serial dilutions (2,5-fold) of the peptides in PBS/Tween 20 were prepared in polypropylene plates with conical well bottom (Greiner, #651201) (concentration range 200 μM, 32 μM, 12.8 μM, 5.1 μM, 2 μM, 0.8 μM, and 0.3 μM). 60 μl of each dilution were added per well. Purified DC2E2 was diluted to a concentration of 0.6 μg/ml in PBS/Tween 20 and 60 μl of this diluted antibody was mixed with each serial dilution of peptides resulting in 120 μl mixtures with […] of antibody/60μl containing each respective test peptide at a concentration of 200 μM, 32 μM, 12.8 μM, 5.1 μM, 2 μM, 0.8 μM, and 0.3 μM. The antibody/peptide mixtures were incubated for 1 hr at 25° C. on a rotating platform set to 250 rpm. […] The plates were washed 4× times with PBS/Tween 20 and incubated for 1 hr at 25° C. on a rotating platform (set to 250 rpm) with 50 μl of Polyclonal Goat Anti-Mouse Immunoglobulins/HRP (Dako, #P0447) diluted 1:1000 in PBS/Tween 20. The plates were washed 4× times with PBS/Tween and then incubated with 50 μl/well of TMB one solution (Kem-En-Tec Diagnostics) as a peroxidase substrate. The reaction was stopped by adding 50 μl of 2 M H₂SO₄ (Merck). Absorbance was measured at 450 nm using a Powerwave HT (Bio-Tek).

[4] = biological target: B3; assay: competition ELISA, peptide 0.3-200 µM pre-incubated with DC2E2, plates coated with tau 1-242
Experimental: as §1

[5] = biological target: in vitro phosphorylated tau151-391 (human, UniProt P10636 468-708, phosphorylated in vitro with rat brain kinase extract; the phosphorylated sites are not listed); assay: immunoblot
Chain of in vitro phosphorylated tau151-391 (P10636 468-708 I625L): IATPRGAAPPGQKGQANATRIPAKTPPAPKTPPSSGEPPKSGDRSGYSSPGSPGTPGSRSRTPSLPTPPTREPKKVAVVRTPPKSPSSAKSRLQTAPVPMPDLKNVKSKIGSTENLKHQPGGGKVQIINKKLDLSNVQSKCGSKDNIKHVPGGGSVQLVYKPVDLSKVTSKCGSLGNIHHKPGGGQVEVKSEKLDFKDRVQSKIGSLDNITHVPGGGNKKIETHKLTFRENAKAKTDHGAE
Experimental: (§2) Adult rat brain (1 g/2.5 ml) was homogenized in kinase buffer (10 mM TRIS-HCl, pH 7.4; 5 mM EGTA, 2 mM DTT; 1 mM PMSF; 2 mM MgCl₂, leupeptin ([…]), pepstatin ([…]), aprotinin ([…])) and after centrifugation at 100,000×g for 30 min at 4° C. the supernatant (kinase extract) was used for the phosphorylation of tau. The phosphorylation reaction was carried out at 37° C. in 10 mM TRIS-HCl, pH 7.4; 5 mM EGTA, 2 mM DTT; 1 mM PMSF; leupeptin (20 μg/ml); pepstatin (20 μg/ml); aprotinin (20μg/ml); 2 mM ATP; 2 mM MgCl₂ and 10 μM okadaic acid. The brain kinase extract (5μl) was added to 50 μl tau solution (1 μM) and reaction was incubated at 37° C. for 24 h. The phosphorylation of tau was analysed by SDS-PAGE and immunoblotting using rabbit anti-serum raised against six recombinant human tau isoforms (Csokova et al., Rapid purification of truncated tau proteins: model approach to purification of functionally active fragments of disordered proteins, implication for neurodegenerative diseases, Protein Expression and Purification, 35:366-372, 2004).
(§3) Soluble tau proteins were diluted with an equal volume of 2×SDS (sodium dodecylsulfate) sample loading buffer (with β-mercaptoethanol) (Laemmli, 1970) and 250 ng of proteins were loaded per lane. […]

[6] = biological target: T2, in vitro phosphorylated human tau 2N4R (human, UniProt P10636 1-758, phosphorylated in vitro with rat brain kinase extract; the phosphorylated sites are not listed); assay: immunoblot
T2 construct: also called phosphorylated tau 2N4R; 2N4R in vitro phosphorylated
Experimental: as §2, §3

[7] = biological target: T3, recombinant tau deletion mutant tau2N4RΔ(134-168) (human, UniProt P10636 1-758); assay: ELISA, coated recombinant tau proteins, DC2E2 hybridoma supernatant
T3 construct: Tau 2N4R with residues 134-168 deleted; also called tau 2N4R(A134-168)
T3 sequence (P10636 other isoform, or with tags, fused parts or gaps mutant): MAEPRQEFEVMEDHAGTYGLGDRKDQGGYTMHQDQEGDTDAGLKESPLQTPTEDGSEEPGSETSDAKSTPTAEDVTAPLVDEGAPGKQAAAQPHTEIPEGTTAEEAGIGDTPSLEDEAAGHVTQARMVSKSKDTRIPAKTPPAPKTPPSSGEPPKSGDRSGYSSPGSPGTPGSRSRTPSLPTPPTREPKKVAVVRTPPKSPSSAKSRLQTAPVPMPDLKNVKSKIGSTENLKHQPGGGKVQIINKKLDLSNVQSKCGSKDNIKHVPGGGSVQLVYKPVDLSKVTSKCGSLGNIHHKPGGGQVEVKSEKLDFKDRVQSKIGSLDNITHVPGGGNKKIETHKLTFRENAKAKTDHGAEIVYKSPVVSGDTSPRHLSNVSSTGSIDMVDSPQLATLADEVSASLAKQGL
Experimental: (§4) Deletion mutants of human tau protein 2N4R were used for epitope mapping of DC2E2 using ELISA (FIG. 2A). Recombinant human tau isoforms 2N4R, 1N4R, 2N3R, 0N4R, 1N3R, 0N3R and tau deletion mutants were prepared as described in Example 1. Microtiter plates were coated overnight at 37° C. with recombinant tau proteins ([…] in PBS, 50 μl/well). The plates were blocked with PBS-Tween20 (0.1% v/v) to reduce nonspecific binding and were incubated with 50 μl/well of DC2E2 hybridoma culture supernatant, for 1 hr at 37° C. Bound monoclonal antibody was detected with sheep anti-mouse Ig HRP-conjugated (DAKO). The reaction was developed with TMB one solution (Kem-En-Tec Diagnostics) as a peroxidase substrate and stopped with 50 μl of 2M H₂SO₄. Absorbance was measured at 450 nm using a Powerwave HT (Bio-Tek). Readouts with an absorbance value of at least twice the value of the negative controls (PBS) were considered positive.

[8] = biological target: recombinant tau deletion mutant tau 221-441 (unphosphorylated) (human, UniProt P10636 538-758); assay: as above
Chain of recombinant tau deletion mutant tau 221-441 (unphosphorylated) (P10636 other isoform, or with tags, fused parts or gaps mutant): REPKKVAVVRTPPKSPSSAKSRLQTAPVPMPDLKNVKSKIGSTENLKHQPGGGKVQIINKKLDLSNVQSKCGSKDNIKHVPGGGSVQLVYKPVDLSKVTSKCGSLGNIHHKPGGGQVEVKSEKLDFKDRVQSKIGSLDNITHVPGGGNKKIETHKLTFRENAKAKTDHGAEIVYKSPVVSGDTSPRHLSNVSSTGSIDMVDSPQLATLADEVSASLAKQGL
Experimental: as §4

[9] = biological target: recombinant tau deletion mutant tau 1-136 (human, UniProt P10636 1-387); assay: as above
Chain of recombinant tau deletion mutant tau 1-136 (P10636 other isoform, or with tags, fused parts or gaps mutant): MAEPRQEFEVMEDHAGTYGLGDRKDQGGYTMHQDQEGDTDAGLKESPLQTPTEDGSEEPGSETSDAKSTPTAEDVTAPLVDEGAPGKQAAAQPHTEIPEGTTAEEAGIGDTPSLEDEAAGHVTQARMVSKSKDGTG
Experimental: as §4

[10] = biological target: T4, recombinant human tau isoform 0N3R (human, UniProt P10636-2 2-352); assay: ELISA, coated recombinant tau protein, hybridoma supernatant
T4 construct: mature
T4 sequence (P10636 other isoform, or with tags, fused parts or gaps): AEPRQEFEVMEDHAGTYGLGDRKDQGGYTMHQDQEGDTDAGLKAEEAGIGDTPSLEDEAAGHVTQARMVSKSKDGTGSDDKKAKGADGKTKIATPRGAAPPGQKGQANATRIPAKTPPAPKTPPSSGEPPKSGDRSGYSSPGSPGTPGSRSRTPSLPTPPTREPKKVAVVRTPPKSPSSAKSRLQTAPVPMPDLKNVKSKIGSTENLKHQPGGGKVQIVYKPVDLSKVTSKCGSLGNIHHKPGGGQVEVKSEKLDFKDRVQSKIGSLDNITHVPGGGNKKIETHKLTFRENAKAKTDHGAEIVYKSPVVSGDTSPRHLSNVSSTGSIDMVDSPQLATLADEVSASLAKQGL
Experimental: as §4

[11] = biological target: recombinant tau deletion mutant tau 1-226 (human, UniProt P10636 1-543); assay: as above
Chain of recombinant tau deletion mutant tau 1-226 (P10636 other isoform, or with tags, fused parts or gaps mutant): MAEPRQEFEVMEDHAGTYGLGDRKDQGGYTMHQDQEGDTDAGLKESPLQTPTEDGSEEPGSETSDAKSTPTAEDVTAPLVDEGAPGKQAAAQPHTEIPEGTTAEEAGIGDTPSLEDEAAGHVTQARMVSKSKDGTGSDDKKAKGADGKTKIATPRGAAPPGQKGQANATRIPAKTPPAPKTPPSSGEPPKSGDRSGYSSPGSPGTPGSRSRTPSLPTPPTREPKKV
Experimental: as §4

[12] = biological target: T5, recombinant human tau isoform 0N4R (human, UniProt P10636-6 2-383); assay: as above
T5 construct: mature
T5 sequence (P10636 other isoform, or with tags, fused parts or gaps): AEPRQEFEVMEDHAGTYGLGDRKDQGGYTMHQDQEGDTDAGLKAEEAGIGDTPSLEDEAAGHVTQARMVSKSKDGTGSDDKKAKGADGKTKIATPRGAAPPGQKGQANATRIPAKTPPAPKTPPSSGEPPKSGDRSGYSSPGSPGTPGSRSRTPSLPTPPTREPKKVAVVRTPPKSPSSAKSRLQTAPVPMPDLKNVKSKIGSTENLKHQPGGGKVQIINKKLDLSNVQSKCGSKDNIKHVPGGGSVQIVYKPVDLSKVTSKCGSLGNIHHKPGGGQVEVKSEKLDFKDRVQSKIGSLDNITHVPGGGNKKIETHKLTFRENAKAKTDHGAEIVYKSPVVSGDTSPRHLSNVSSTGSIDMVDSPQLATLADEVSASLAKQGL
Experimental: as §4

[13] = biological target: T6, recombinant human tau isoform 2N3R (human, UniProt P10636-5 2-410); assay: as above
T6 construct: mature
Experimental: as §4

[14] = biological target: T7, recombinant human tau isoform 1N3R (human, UniProt P10636-4 2-381); assay: as above
T7 construct: mature
T7 sequence (P10636 other isoform, or with tags, fused parts or gaps): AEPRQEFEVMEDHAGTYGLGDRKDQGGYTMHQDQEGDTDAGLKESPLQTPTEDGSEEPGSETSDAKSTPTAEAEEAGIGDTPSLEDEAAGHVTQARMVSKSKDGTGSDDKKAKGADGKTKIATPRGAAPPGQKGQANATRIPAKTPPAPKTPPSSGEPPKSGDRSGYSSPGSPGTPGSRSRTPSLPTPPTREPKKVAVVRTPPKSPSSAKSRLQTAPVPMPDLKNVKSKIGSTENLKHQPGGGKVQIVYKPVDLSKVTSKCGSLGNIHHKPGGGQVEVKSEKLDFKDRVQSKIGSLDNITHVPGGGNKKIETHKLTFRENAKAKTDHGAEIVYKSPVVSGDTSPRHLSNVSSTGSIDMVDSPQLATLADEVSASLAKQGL
Experimental: as §4

[15] = biological target: recombinant truncated tau151-391 (unphosphorylated) (human, UniProt P10636 468-708); assay: as above
Chain of recombinant truncated tau151-391 (unphosphorylated) (P10636 468-708 I625L): as the sequence (P10636 468-708 I625L) above
Experimental: as §4

[16] = biological target: recombinant tau deletion mutant tau 99-441 (human, UniProt P10636 99-758); assay: as above
Experimental: as §4

[17] = biological target: recombinant tau deletion mutant tau 31-441 (human, UniProt P10636 31-758); assay: as above
Chain of recombinant tau deletion mutant tau 31-441 (P10636 other isoform, or with tags, fused parts or gaps mutant): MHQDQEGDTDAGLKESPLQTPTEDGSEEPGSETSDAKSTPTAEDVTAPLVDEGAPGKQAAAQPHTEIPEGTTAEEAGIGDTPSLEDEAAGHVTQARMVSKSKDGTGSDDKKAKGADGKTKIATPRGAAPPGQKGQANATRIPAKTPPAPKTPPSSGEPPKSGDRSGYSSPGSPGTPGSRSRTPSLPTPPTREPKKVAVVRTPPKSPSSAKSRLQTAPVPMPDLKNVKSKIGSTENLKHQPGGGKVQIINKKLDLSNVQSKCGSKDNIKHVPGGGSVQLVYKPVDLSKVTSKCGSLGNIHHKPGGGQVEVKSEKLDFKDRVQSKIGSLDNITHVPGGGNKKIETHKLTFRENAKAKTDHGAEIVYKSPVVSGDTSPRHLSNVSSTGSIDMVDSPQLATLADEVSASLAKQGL
Experimental: as §4

[18] = biological target: T8, recombinant human tau isoform 1N4R (human, UniProt P10636-7 2-412); assay: as above
T8 construct: mature
T8 sequence (P10636 other isoform, or with tags, fused parts or gaps): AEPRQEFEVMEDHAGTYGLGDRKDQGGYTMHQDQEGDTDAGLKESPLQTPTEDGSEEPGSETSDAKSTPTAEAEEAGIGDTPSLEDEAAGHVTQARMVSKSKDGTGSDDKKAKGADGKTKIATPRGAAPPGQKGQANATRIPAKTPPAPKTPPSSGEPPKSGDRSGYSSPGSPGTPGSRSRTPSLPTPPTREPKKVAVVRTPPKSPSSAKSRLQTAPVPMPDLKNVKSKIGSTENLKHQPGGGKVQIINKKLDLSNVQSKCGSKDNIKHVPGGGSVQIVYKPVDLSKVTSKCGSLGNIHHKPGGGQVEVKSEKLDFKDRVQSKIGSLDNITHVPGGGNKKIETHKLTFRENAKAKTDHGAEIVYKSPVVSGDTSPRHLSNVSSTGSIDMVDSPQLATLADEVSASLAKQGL
Experimental: as §4

[19] = biological target: recombinant tau deletion mutant tau 127-441 (human, UniProt P10636 378-758); assay: as above
Chain of recombinant tau deletion mutant tau 127-441 (P10636 other isoform, or with tags, fused parts or gaps mutant): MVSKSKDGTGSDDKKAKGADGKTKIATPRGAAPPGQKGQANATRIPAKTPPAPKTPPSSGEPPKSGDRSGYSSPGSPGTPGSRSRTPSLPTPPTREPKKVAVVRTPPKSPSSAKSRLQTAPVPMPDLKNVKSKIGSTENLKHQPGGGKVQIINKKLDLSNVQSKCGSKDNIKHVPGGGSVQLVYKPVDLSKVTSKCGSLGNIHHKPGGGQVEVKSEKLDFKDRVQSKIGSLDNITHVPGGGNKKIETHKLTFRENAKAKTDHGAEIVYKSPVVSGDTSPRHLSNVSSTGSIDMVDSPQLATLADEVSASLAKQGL
Experimental: as §4

[20] = biological target: T9, recombinant tau deletion mutant tau 1-242 (human, UniProt P10636 1-559); assay: hybridoma screening ELISA on coated tau 1-242
T9 construct: Numbered on tau 2N4R; It was the immunogen for DC2E2
T9 sequence (P10636 other isoform, or with tags, fused parts or gaps mutant): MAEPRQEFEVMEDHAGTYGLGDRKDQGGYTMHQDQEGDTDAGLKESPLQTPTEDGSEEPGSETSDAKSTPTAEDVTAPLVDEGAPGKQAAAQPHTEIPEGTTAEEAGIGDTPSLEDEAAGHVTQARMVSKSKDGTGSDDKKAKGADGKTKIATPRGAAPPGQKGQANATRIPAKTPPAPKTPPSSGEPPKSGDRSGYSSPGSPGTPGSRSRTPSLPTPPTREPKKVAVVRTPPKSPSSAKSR
Experimental: The plates were blocked with 1% nonfat dried milk to reduce nonspecific binding, washed with PBS-0.05% Tween 20, and incubated with 50 μl/well of hybridoma culture supernatant for 1 hr at 37° C. Bound monoclonal antibodies were detected with sheep anti-mouse immunoglobulin (Ig) conjugated with horse radish peroxidase (HRP, DAKO). The reaction was developed with TMB one (Kem-En-Tec Diagnostics) as a peroxidase substrate and stopped with 50 μl of 2 M H₂SO₄. Absorbance at 450 nm was measured using a Powerwave HT (Bio-Tek). Readouts with an absorbance value of at least twice the value of the negative controls (PBS) were considered positive. Positive hybridoma cultures were further subcloned in soft agar according to the procedure described in Kontsekova et al., One-step method for establishing 8-azaguanine-resistant hybridomas suitable for preparation of triomas, J. Immunol. Methods, 145, 247-250 (1991).

Binder: SR[pT]PSLP[pT]PP [synthetic phosphopeptide tau 210-219/pT212/pT217]
- binding result [1]: no binding (tested: peptide up to 200 µM)

Binder: B1
- binding result [2]: no binding

Binder: KAKGADGKTKIATPRGAAPPGQKGQANATR [synthetic peptide tau 141-170]
- binding result [3]: no binding (tested: peptide up to 200 µM)

Binder: TPPSSGEPPKSGDRSGYSSPGSPGTPGSRS [synthetic peptide tau 181-210]
- binding result [3]: no binding (tested: peptide up to 200 µM)

- binding result [4]: binds
Binder: GQKGQANATRIPAKTPPAPKTPPSSGEPPK [synthetic peptide tau 161-190]

Binder: IPAKTPPAPKTPPSSGEPPKSGDRSGYSSP [synthetic peptide tau 171-200]
- binding result [3]: no binding (tested: peptide up to 200 µM)

Binder: SR[pT]PSLP[pT]P [synthetic phosphopeptide tau 210-218/pT212/pT217]
- binding result [1]: no binding (tested: peptide up to 200 µM)

Binder: SR[pT]PSLP[pT]PPT [synthetic phosphopeptide tau 210-220/pT212/pT217]
- binding result [1]: no binding (tested: peptide up to 200 µM)

Binder: B2
- binding result [2]: no binding

Binder: B3
- binding result [5]: binds
- binding result [6]: binds
- binding result [7]: no binding
- binding result [8]: no binding
- binding result [9]: no binding
- binding result [10]: binds
- binding result [11]: binds
- binding result [12]: binds
- binding result [13]: binds
- binding result [14]: binds
- binding result [15]: binds
- binding result [16]: binds
- binding result [17]: binds
- binding result [18]: binds
- binding result [19]: binds
- binding result [20]: binds
